Results: patent US20190292537, “Prokaryotic Argonaute Proteins and Uses Thereof” (Wageningen Universiteit, published 2019)

Legend:
Conditions in all cases: tags: His-MBP N-terminal (TEV added during purification)
CbAgo [1] = target: T1, CbAgo (Clostridium butyricum, UniProt P0DYD1 SEQ:1-748); test: EMSA; DNA guide preloaded, 37 C; target printed as 7043 in text, 7023 in Table 2
Protocol: (§1) CbAgo (10 pmol) was pre-incubated with the desired polynucleotide guide (RNA guide: 7024, DNA guide: 3466, 10 pmol) for 5 min at 37° C. This was followed by addition of a target polynucleotide (RNA target: […]: 7043, 10 pmol) and another incubation step of 5 min at 37° C. The reactions were then resolved on a 6% Native PAGE gel and stained with SYBR gold.

CbAgo [2] = target: T1, CbAgo; test: EMSA; DNA guide, RNA target, 37 C
Protocol: as §1

CbAgo [3] = target: T1, CbAgo; test: EMSA; RNA guide, DNA target, 37 C; target printed as 7043 in text, 7023 in Table 2
Protocol: as §1

CbAgo [4] = target: T1, CbAgo; test: EMSA; RNA guide, RNA target, 37 C
Protocol: as §1

B1: DNA guide 3466 ; DNA target 7023 (ssDNA ; ssDNA)
DNA 1: TGAGGTAGTAGGTTGTATAGT
DNA 2: AAACGACGGCCAGTGCCAAGCTTACTATACAACCTACTACCTCAT
modifications: 5'-phosphate ; 5'-phosphate
**Q.** Does B1 bind (CbAgo [1])?
**A.** binds

B2: DNA guide 3466 ; RNA target 7022 (ssDNA ; ssRNA)
DNA: TGAGGTAGTAGGTTGTATAGT
RNA: AAACGACGGCCAGUGCCAAGCUUACUAUACAACCUACUACCUCAU
modifications: 5'-phosphate ; 5'-phosphate
**Q.** Does B2 bind (CbAgo [2])?
**A.** binds

B3: RNA guide 7024 ; DNA target 7023 (ssRNA ; ssDNA)
RNA: UGAGGUAGUAGGUUGUAUAGU
DNA: AAACGACGGCCAGTGCCAAGCTTACTATACAACCTACTACCTCAT
modifications: 5'-phosphate ; 5'-phosphate
**Q.** Does B3 bind (CbAgo [3])?
**A.** binds

B4: RNA guide 7024 ; RNA target 7022 (ssRNA ; ssRNA)
RNA 1: UGAGGUAGUAGGUUGUAUAGU
RNA 2: AAACGACGGCCAGUGCCAAGCUUACUAUACAACCUACUACCUCAU
modifications: 5'-phosphate ; 5'-phosphate
**Q.** Does B4 bind (CbAgo [4])?
**A.** binds
